How the values were obtained:
[1] = biological target: recombinant cynomolgus monkey CD3ε/δ heterodimer (cynomolgus monkey) (UniProt Q95LI5); assay: ELISA, coated CD3ε/δ
[2] = biological target: recombinant human CD3ε/δ heterodimer (human) (UniProt P07766); assay: ELISA, coated CD3ε/δ
[3] = biological target: recombinant cynomolgus monkey CD3ε/δ heterodimer (cynomolgus monkey) (UniProt Q95LI5); assay: BLI (Octet), antigen on anti-Penta His sensor, antibody 50 nM
[4] = biological target: recombinant human CD3ε/δ heterodimer (human) (UniProt P07766); assay: as above

recombinant cynomolgus monkey CD3ε/δ heterodimer (cynomolgus monkey), sequence (Q95LI5 22-117, stated change not applied, chain 1 of 2): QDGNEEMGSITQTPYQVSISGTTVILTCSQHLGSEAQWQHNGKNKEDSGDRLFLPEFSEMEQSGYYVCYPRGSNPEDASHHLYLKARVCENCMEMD
recombinant cynomolgus monkey CD3ε/δ heterodimer (cynomolgus monkey), sequence (Q95LI8 22-105, stated change not applied, chain 2 of 2, further chain): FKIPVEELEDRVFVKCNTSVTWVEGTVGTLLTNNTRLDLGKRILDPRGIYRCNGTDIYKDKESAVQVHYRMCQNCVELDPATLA
recombinant human CD3ε/δ heterodimer (human), sequence (P07766 23-126, stated change not applied, chain 1 of 2): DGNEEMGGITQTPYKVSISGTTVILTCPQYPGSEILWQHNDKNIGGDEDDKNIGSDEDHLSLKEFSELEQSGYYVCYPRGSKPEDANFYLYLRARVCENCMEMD
recombinant human CD3ε/δ heterodimer (human), sequence (P04234 22-105, stated change not applied, chain 2 of 2, further chain): as the sequence (Q95LI8 22-105, stated change not applied, chain 2 of 2, further chain) above, with V5I, K15N, V20I, T32S, N33D, N34I, A64T, N74S, L83V counted along it

Row | Absorbance (450 nm) [1] | Absorbance (450 nm) [2] | Kd [3] [pM] | koff [3] [s⁻¹] | kon [3] [M⁻¹ s⁻¹] | Kd [4] [pM] | koff [4] [s⁻¹] | kon [4] [M⁻¹ s⁻¹] | Binder
1 | 2.6 | 0.96 | 27500 | 0.00535 | 194000 | 23000 | 0.00349 | 152000 | C07 (antibody, human IgG1, lambda, L234A L235A, V domains shown) VH: EVQLVESGGGLVQPGGSLKLSCAASGFTFNTYAMNWVRQASGKGLEWVGRIRSKYNNYATYYADSVKDRFTISRDDSQSTAYLQMNSLKTEDTAVYYCVRHGNFGNSYVSWFAYWGQGTLVTVSS VL: QAVVTQEPSLTVSPGGTVTLTCRSSTGAVTTSNYANWFQQKPGQAPRGLIGGTNKRAPWTPARFSGSLLGGKAALTLSGAQPEDEAEYYCALWYSNLWVFGGGTKLTVLG
2 | 2.53 | 0.897 | 21600 | 0.00266 | 123000 | 35000 | 0.00287 | 82000 | D08 (antibody, human IgG1, lambda, L234A L235A, V domains shown) VH: EVQLVESGGGLVQPGGSLKLSCAASGFTFNTYAMNWVRQASGKGLEWVGRIRSKYNNYATYYADSVKDRFTISRDDSQSTLYLQMNSLKTEDTAVYYCVRHGNFGNSYVSWFAYWGQGTLVTVSS VL: QAVVTQEPSLTVSPGGTVTLTCRSSTGAVTTSNYANWFQQKPGQAPRGLIGGTNKRAPWTPARFSGSLLGDKAALTLSGAQPEDEAEYYCALWYSNLWVFGGGTKLTVLG
3 | 2.8 | 2.37 | 888 | 0.000341 | 384000 | 419 | 0.000112 | 268000 | C16 (antibody, human IgG1, lambda, L234A L235A, V domains shown) VH: EVQLVESGGGLVQPGGSLKLSCAASGFTFNTYAMNWVRQASGKGLEWVGRIRSKYNNYATYYADSVKDRFTISRDDSQSTAYLQMNSLKTEDTAVYYCVRHGNFGNSYVSWFAYWGQGTLVTVSS VL: QAVVTQEPSLTVSPGGTVTLTCRSSTGAVTTSNYANWVQQKPGQAPRGLIGGTNKRAPWTPARFSGSLLGDKAALTLSGAQPEDEAEYYCALWYSNLWVFGGGTKLTVLG
4 | 2.18 | 0.446 | 35600 | 0.00589 | 166000 | 29400 | 0.00317 | 108000 | C08 (antibody, human IgG1, lambda, L234A L235A, V domains shown) VH: EVQLVESGGGLVQPGGSLKLSCAASGFTFNTYAMNWVRQASGKGLEWVGRIRSKYNNYATYYADSVKDRFTISRDDSQSTAYLQMNSLKTEDTAVYYCVRHGNFGNSYVSWFAYWGQGTLVTVSS VL: QAVVTQEPSLTVSPGGTVTLTCRSSTGAVTTSNYANWFQQKPGQAPRGLIGGTNKRAPWTPARFSGSLLGDKAALTLSGAQPEDEAEYYCALWYSNLWVFGGGTKLTVLG
5 | – | – | 140 | 5.3e-05 | 378000 | 229 | 6.01e-05 | 262000 | Mouse human chimeric SP34 IgG1 antibody (antibody, V domains shown) VH: EVQLVESGGGLVQPKGSLKLSCAASGFTFNTYAMNWVRQAPGKGLEWVARIRSKYNNYATYYADSVKDRFTISRDDSQSILYLQMNNLKTEDTAMYYCVRHGNFGNSYVSWFAYWGQGTLVTVSS VL: QAVVTQESALTTSPGETVTLTCRSSTGAVTTSNYANWVQEKPDHLFTGLIGGTNKRAPGVPARFSGSLIGDKAALTITGAQTEDEAIYFCALWYSNLWVFGGGTKLTVLG
6 | 3.01 | 2.53 | 533 | 0.000233 | 437000 | 294 | 9.6e-05 | 327000 | D15 (antibody, human IgG1, lambda, L234A L235A, V domains shown) VH: EVQLVESGGGLVQPGGSLKLSCAASGFTFNTYAMNWVRQASGKGLEWVGRIRSKYNNYATYYADSVKDRFTISRDDSQSTLYLQMNSLKTEDTAVYYCVRHGNFGNSYVSWFAYWGQGTLVTVSS VL: QAVVTQEPSLTVSPGGTVTLTCRSSTGAVTTSNYANWVQQKPGQAPRGLIGGTNKRAPWTPARFSGSLLGGKAALTLSGAQPEDEAEYYCALWYSNLWVFGGGTKLTVLG
7 | 2.87 | 2.65 | 611 | 0.000217 | 356000 | 446 | 0.000107 | 240000 | D16 (antibody, human IgG1, lambda, L234A L235A, V domains shown) VH: EVQLVESGGGLVQPGGSLKLSCAASGFTFNTYAMNWVRQASGKGLEWVGRIRSKYNNYATYYADSVKDRFTISRDDSQSTLYLQMNSLKTEDTAVYYCVRHGNFGNSYVSWFAYWGQGTLVTVSS VL: QAVVTQEPSLTVSPGGTVTLTCRSSTGAVTTSNYANWVQQKPGQAPRGLIGGTNKRAPWTPARFSGSLLGDKAALTLSGAQPEDEAEYYCALWYSNLWVFGGGTKLTVLG
8 | 0.102 | 0.127 | – | – | – | – | – | – | B14 (antibody, human IgG1, lambda, L234A L235A, V domains shown) VH: EVQLVESGGGLVQPGGSLKLSCAASGFTFNTYAMNWVRQASGKGLEWVGRIRSKYNNYATYYADSVKDRFTISRDDSKNTLYLQMNSLKTEDTAVYYCVRHGNFGNSYVSWFAYWGQGTLVTVSS VL: QAVVTQEPSLTVSPGGTVTLTCRSSTGAVTTSNYANWVQQKPGQAPRGLIYGTNKRAPWTPARFSGSLLGDKAALTLSGAQPEDEAEYYCALWYSNLWVFGGGTKLTVLG
9 | 2.39 | 1.17 | 20000 | 0.00284 | 143000 | 19000 | 0.00214 | 113000 | D07 (antibody, human IgG1, lambda, L234A L235A, V domains shown) VH: EVQLVESGGGLVQPGGSLKLSCAASGFTFNTYAMNWVRQASGKGLEWVGRIRSKYNNYATYYADSVKDRFTISRDDSQSTLYLQMNSLKTEDTAVYYCVRHGNFGNSYVSWFAYWGQGTLVTVSS VL: QAVVTQEPSLTVSPGGTVTLTCRSSTGAVTTSNYANWFQQKPGQAPRGLIGGTNKRAPWTPARFSGSLLGGKAALTLSGAQPEDEAEYYCALWYSNLWVFGGGTKLTVLG
10 | 2.81 | 2.45 | 653 | 0.000343 | 525000 | 430 | 0.000162 | 376000 | C15 (antibody, human IgG1, lambda, L234A L235A, V domains shown) VH: EVQLVESGGGLVQPGGSLKLSCAASGFTFNTYAMNWVRQASGKGLEWVGRIRSKYNNYATYYADSVKDRFTISRDDSQSTAYLQMNSLKTEDTAVYYCVRHGNFGNSYVSWFAYWGQGTLVTVSS VL: QAVVTQEPSLTVSPGGTVTLTCRSSTGAVTTSNYANWVQQKPGQAPRGLIGGTNKRAPWTPARFSGSLLGGKAALTLSGAQPEDEAEYYCALWYSNLWVFGGGTKLTVLG
11 | 0.075 | 0.131 | – | – | – | – | – | – | C01 (antibody, human IgG1, lambda, L234A L235A, V domains shown) VH: EVQLVESGGGLVQPGGSLKLSCAASGFTFNTYAMNWVRQASGKGLEWVGRIRSKYNNYATYYADSVKDRFTISRDDSQSTAYLQMNSLKTEDTAVYYCVRHGNFGNSYVSWFAYWGQGTLVTVSS VL: QAVVTQEPSLTVSPGGTVTLTCRSSTGAVTTSNYANWFQQKPGQAPRTLIYGTNKRAPWTPARFSGSLLGGKAALTLSGAQPEDEAEYYCALWYSNLWVFGGGTKLTVLG
